According to patent US8084213, “Selection” (Domantis Limited):

Biological target: Vh(DOM1h-10-27)-scArc-HA (Phage P22 / human Vh)
Assay: DNA co-captured on protein A and human TNF receptor, not BSA
Conditions: tags: N-terminal Vh dAb fusion, C-terminal HA; chain copies: 2 scArc per operator (inferred)
Protocol: The functional activity of the V_H(DOM1h-10-27)-scArc fusion protein can be assessed by PCR amplification of the DNA co-captured during the V_H-dependent immunoprecipitation of the in vitro translation reaction product. As in the case of $V_\kappa$-scArc fusion constructs, 1 µl of 1.7 nM template in 0.2 mg/ml tRNA is added to 25 µl EcoPro T7 in vitro translation mix (Novagen), supplemented with 0.75 µl of 100 mM oxidized glutathione (Sigma), and incubated at 25° C. for four hours. During the translation reaction the streptavidin-coated PCR tubes, cut from Strep Thermofast 96-well plates (Abgene), are first incubated at room temperature for three hours with 50 µl of at least 40 nM biotinylated target protein in PBS. The coating buffer is thereafter removed and any remaining free biotin-binding sites are blocked with a 15 min pulse of 50 µg/ml biotinylated BSA in PBS. The precoated wells are thereafter three times washed with PBS and then filled with 100 µl of binding buffer C+ (100 mM KCl, 20 mM Tris, 5 mM MgCl_2, 0.05% Tween 20, 0.05 mM EDTA, 1% BSA). Upon completion of the translation reaction the products are diluted in Buffer C+ and applied to the pre-coated and blocked PCR tubes, allowed to bind for 30 min at room temperature and washed 4 times with 150 µl of Buffer C+. […]

B1: Arc operator, one copy, on linear genetic element (dsDNA)
DNA 1: ATGATAGAAGCACTCTACTAT
DNA 2: ATAGTAGAGTGCTTCTATCAT
B1: binds.
